One may read the Kd as a measure of binding affinity in units of concentration. Low readings indicate higher affinity, high ones lower affinity. The term koff denotes the first-order rate constant of dissociation. A high value points to a short-lived complex. Usually kon stands for a measure of how fast the partners come together. A low value points to slow association.

This assay deals with mAb3F3 (mouse). The experiment in a line: SPR; Biacore T200; antibodies injected for 60 s at 10 μl/min in the active flow cell; BSA conjugated peptide antigens flowed at 1.25 to 20 nM.

Positions of bridges follow the written chain, without caps; N, C: chain ends. No end group written: not given here.

Molecule CGLRSFTRQARVVGGTDADEGEWPC (disulfide 1-25; also: conjugated to BSA) [BSA conjugated Mat-Loop (human Prss14/ST14 aa604-627 plus C-terminal cysteine, circular 25mer)] gave a Kd of 5.33 nM, a koff of 0.00342 s⁻¹ and a kon of 641000 M⁻¹ s⁻¹.
Take CGLRSFTRQARVVGGTDADEGEWP [Mat-Linear (human Prss14/ST14 aa604-627, linear 24mer)]: the Kd is 406 nM, the off-rate constant (koff) stood at 0.0105 s⁻¹ and the kon stood at 25900 M⁻¹ s⁻¹.

(Values after publication PMC6701106.)
